From publication PMC5949987 come the findings set out here.

The target in one experiment is cerulean–β2AR (UniProt P07550). In words: calibrated confocal fluorescence intensities at the plasma membrane; HEK 293 cells expressing cerulean-β2AR and venus–mGs, 10 μM isoproterenol, steady state; venus and cerulean intensities calibrated with the standard protein cerulean–TM–venus; n = 17.
Another experiment concerns the target β2AR–SmBit (UniProt P07550). As to the kind of experiment: split reporter (BiFC, NanoBiT); NanoLuc complementation in intact HEK 293 cells cotransfected with receptor–SmBit and LgBit–mG; total luminescence with furimazine against agonist concentration.
A further experiment has as its target β2AR–Rluc8 (UniProt P07550). As to the kind of experiment: FRET or BRET; intact HEK 293 cells with agonist; receptor–Rluc8 or receptor–Nluc as donor, NES–venus–mG as acceptor; net BRET; DPBS, 96-well plates.

On to venus–mGs (domain or fragment), for which the stoichiometry N (venus–mGs per cerulean–β2AR) in the experiment with cerulean–β2AR worked out at 1.17.
Consider LgBit–mGs, for which, in the experiment with β2AR–SmBit, the fold increase in luminescence intensity on agonist stimulation was < 20 fold.
As for NES–venus–mGs (domain or fragment), the time to dissociate after addition of the inverse agonist ICI 118,551 in the experiment with β2AR–Rluc8 was > 15 min.
